Measurements: the RNAGym collection of RNA variant scans (doi:10.1073/pnas.2313332121)

B1: TPR t1 (parent)
chain: GACCAAUCUGCCCUCAGAGCUCGAGAACAUCUUCGGAUGCAGAGGAGGCAGGCUUCGGUGGCGCGAUAGCGCCAACGUCCUCAACCUCCAAUGCAUCCCACCACAUGAUGAUGCCUGAAGAGCCUUGGUUUUUUG

Variants of: B1
Assay: polymerase ribozyme fitness, log enrichment relative to wild type (log ratio); higher = more active; in vitro selection for triplet polymerase activity
Method in brief: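 Both subunits of a heterodimeric triplet polymerase ribozyme were given their own mutant library, built by PCR and transcribed. Each library was annealed with a biotinylated primer, the partner subunit and triplets, incubated frozen at −7 °C, and its extended constructs gel-excised, captured on streptavidin beads and amplified by RT-PCR, all in one round done in triplicate. Fitness is the logarithm of genotype enrichment relative to wild-type enrichment, with replicates averaged by inverse-variance weighting. That logarithm is base 2, and Illumina-sequenced genotypes needed ≥10 input reads and ≥1 read per output.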
In the case of C40U G93A, the “polymerase ribozyme fitness (log ratio)” value is reported as -1.09.
With G39A G69C the “polymerase ribozyme fitness (log ratio)” value was -0.611.
For C40G C94A, the “polymerase ribozyme fitness (log ratio)” value was -2.65.
In the case of G39A C70G U112G, the “polymerase ribozyme fitness (log ratio)” value is reported as -4.63.
For G39A C72U C99U G120A U126C, the “polymerase ribozyme fitness (log ratio)” value was -3.09.
With C40A G60U A91G G135C the “polymerase ribozyme fitness (log ratio)” value was -4.18.
For C40U C56G, the “polymerase ribozyme fitness (log ratio)” value was -1.16.
For C40A G61C A66U G128U U129A U133G, the “polymerase ribozyme fitness (log ratio)” value was -6.
In the case of C40U C104A A119G, the “polymerase ribozyme fitness (log ratio)” value is reported as -1.84.
In the case of C40U C64U C82G, the “polymerase ribozyme fitness (log ratio)” value is reported as -1.35.
With A41C C70U C85U the “polymerase ribozyme fitness (log ratio)” value was -2.92.
For C40U C104U, the “polymerase ribozyme fitness (log ratio)” value was -0.655.
For C40U C104A, the “polymerase ribozyme fitness (log ratio)” value was -2.08.
In the case of A41U A91C U92C, the “polymerase ribozyme fitness (log ratio)” value is reported as -2.44.
With G39U A66U A119G the “polymerase ribozyme fitness (log ratio)” value was -0.493.
For C40G C72U G93A, the “polymerase ribozyme fitness (log ratio)” value was -0.859.
For C40A U109C C115U, the “polymerase ribozyme fitness (log ratio)” value was -6.69.
For G39C A50C C56G G71A G77A A90U U96A, the “polymerase ribozyme fitness (log ratio)” value was -4.32.
With C40G C86U C101A the “polymerase ribozyme fitness (log ratio)” value was -2.66.
For G39U G44C C72U, the “polymerase ribozyme fitness (log ratio)” value was -1.9.
In the case of C40U G117A, the “polymerase ribozyme fitness (log ratio)” value is reported as -1.87.
In the case of C40A G42A G48U G58A A90G, the “polymerase ribozyme fitness (log ratio)” value is reported as -2.65.
In the case of C40G U78C, the “polymerase ribozyme fitness (log ratio)” value is reported as -1.4.
With G39C G69A G127U the “polymerase ribozyme fitness (log ratio)” value was -3.35.
With C40G G45U U106A U112A the “polymerase ribozyme fitness (log ratio)” value was -0.392.
In the case of A41C G117C, the “polymerase ribozyme fitness (log ratio)” value is reported as -4.47.
For G39C G48U C62U, the “polymerase ribozyme fitness (log ratio)” value was -1.74.
For C40G C124A, the “polymerase ribozyme fitness (log ratio)” value was 1.16.
With G39A G57A G60C C101A G113C the “polymerase ribozyme fitness (log ratio)” value was -6.12.
For C40G C102A, the “polymerase ribozyme fitness (log ratio)” value was -3.26.
In the case of G39U C88U C94U U106G A121C, the “polymerase ribozyme fitness (log ratio)” value is reported as -0.0673.
With G39A U81A C88U the “polymerase ribozyme fitness (log ratio)” value was -0.679.
With C40U C70A the “polymerase ribozyme fitness (log ratio)” value was -1.93.
In the case of G39A C115A, the “polymerase ribozyme fitness (log ratio)” value is reported as -0.711.
With A41U A46U G63U C115A G120U C123G the “polymerase ribozyme fitness (log ratio)” value was -3.28.
With A41C C56U C94A the “polymerase ribozyme fitness (log ratio)” value was -3.
In the case of C40U A83G U112G, the “polymerase ribozyme fitness (log ratio)” value is reported as -1.69.
For G39A C72G A105G, the “polymerase ribozyme fitness (log ratio)” value was -2.86.
With G39C U55G A119U the “polymerase ribozyme fitness (log ratio)” value was -0.691.
In the case of A41C G52A C82G C97U C101G A118U A121U, the “polymerase ribozyme fitness (log ratio)” value is reported as -2.61.
For C40U A41C C56A C73U C114A, the “polymerase ribozyme fitness (log ratio)” value was -3.67.
In the case of G39C C56A, the “polymerase ribozyme fitness (log ratio)” value is reported as -0.765.
For C40A A43C, the “polymerase ribozyme fitness (log ratio)” value was -3.2.
For C40G U55G, the “polymerase ribozyme fitness (log ratio)” value was -0.761.
In the case of C40A C72A, the “polymerase ribozyme fitness (log ratio)” value is reported as -0.912.
In the case of C40U C80U C99U C124U, the “polymerase ribozyme fitness (log ratio)” value is reported as -2.92.
In the case of C40G G113A G122C, the “polymerase ribozyme fitness (log ratio)” value is reported as -1.81.
In the case of A41C G113A C124G, the “polymerase ribozyme fitness (log ratio)” value is reported as -1.49.
In the case of G39C C114A, the “polymerase ribozyme fitness (log ratio)” value is reported as -1.94.
For C40G G69U U92A G93A C94G A119G, the “polymerase ribozyme fitness (log ratio)” value was -0.914.
For C40G U132A, the “polymerase ribozyme fitness (log ratio)” value was -0.821.
With C40U G122A the “polymerase ribozyme fitness (log ratio)” value was -1.22.
With C40G C94A G110C C114U A118G the “polymerase ribozyme fitness (log ratio)” value was -6.35.
In the case of G39A G58A, the “polymerase ribozyme fitness (log ratio)” value is reported as -1.7.
In the case of C40G A95U, the “polymerase ribozyme fitness (log ratio)” value is reported as -3.37.
With C40G A46U C53U C62A the “polymerase ribozyme fitness (log ratio)” value was -3.89.
In the case of C40G G69A A84C, the “polymerase ribozyme fitness (log ratio)” value is reported as -3.83.
In the case of C40G G61A C104A U106C, the “polymerase ribozyme fitness (log ratio)” value is reported as -1.7.
For C40G A46C G51U C62U U87G C115G, the “polymerase ribozyme fitness (log ratio)” value was -6.61.
With C40U G61U C86G the “polymerase ribozyme fitness (log ratio)” value was -2.87.
For C40A G127C, the “polymerase ribozyme fitness (log ratio)” value was -2.27.
For A41C G45U C124A U126G, the “polymerase ribozyme fitness (log ratio)” value was -1.66.
In the case of A41G C104U, the “polymerase ribozyme fitness (log ratio)” value is reported as 0.737.
In the case of C40U G48U C82A C88A, the “polymerase ribozyme fitness (log ratio)” value is reported as -3.31.
With C40U C62G G127C the “polymerase ribozyme fitness (log ratio)” value was -3.27.
In the case of C40U C76U G117A, the “polymerase ribozyme fitness (log ratio)” value is reported as -2.16.
With C40U C115A G128A the “polymerase ribozyme fitness (log ratio)” value was -2.68.
For C40A G69C, the “polymerase ribozyme fitness (log ratio)” value was -2.42.
For G39C G77C C115U G128A, the “polymerase ribozyme fitness (log ratio)” value was -4.5.
In the case of A41G C70U U78C, the “polymerase ribozyme fitness (log ratio)” value is reported as -0.997.
In the case of C40G G44U G63C C85U, the “polymerase ribozyme fitness (log ratio)” value is reported as -5.9.
In the case of G39A G69A A121U G128U, the “polymerase ribozyme fitness (log ratio)” value is reported as -3.24.
In the case of C40U A68U A74U C97U C102A A111G, the “polymerase ribozyme fitness (log ratio)” value is reported as -7.15.
For G39U G47U, the “polymerase ribozyme fitness (log ratio)” value was -2.97.
For C40G A41U C70U C124G, the “polymerase ribozyme fitness (log ratio)” value was -3.14.
In the case of G39U G52A U55C C56A C80U, the “polymerase ribozyme fitness (log ratio)” value is reported as -1.08.
In the case of C40U A105C, the “polymerase ribozyme fitness (log ratio)” value is reported as -3.68.
With C40A G45U G71C U92A the “polymerase ribozyme fitness (log ratio)” value was -6.28.
In the case of A41U A43G C94U, the “polymerase ribozyme fitness (log ratio)” value is reported as -3.17.
With G39A G57U G71U U78G C123A the “polymerase ribozyme fitness (log ratio)” value was -0.79.
For G39C G44U, the “polymerase ribozyme fitness (log ratio)” value was -2.29.
With C40U C72U C98G G127U U131C the “polymerase ribozyme fitness (log ratio)” value was -6.34.
With C40U C62U A95G the “polymerase ribozyme fitness (log ratio)” value was -0.773.
